Reference: article PMC9250616 (2022)

Molecular target: T1, Protective antigen (Bacillus anthracis, UniProt P13423)
T1 chain: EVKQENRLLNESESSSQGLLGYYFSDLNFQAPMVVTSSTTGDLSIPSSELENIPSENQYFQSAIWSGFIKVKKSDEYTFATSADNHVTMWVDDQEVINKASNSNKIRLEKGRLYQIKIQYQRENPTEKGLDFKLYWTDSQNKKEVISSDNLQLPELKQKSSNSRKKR

B1: CMG2 (protein)
chain: QEQPSCRRAFDLYFVLDKSGSVANNWIEIYNFVQQLAERFVSPEMRLSFIVFSSQATIILPLTGDRGKISKGLEDLKRVSPVGETYIHEGLKLANEQIQKAGGLKTSSIIIALTDGKLDGLVPSYAEKEAKISRSLGASVYCVGVLDFEQAQLERIADSKEQVFPVKGGFQALKGIINSILAQSCTEILELQPSSVCVGEEFQIVLSGRGFMLGSRNGSVLCTYTVNETYTTSVKPVSVQLNSMLCPAPILNKAGETLDVSVSFNGGKSVISGSLIVTATECSNG
Kd: 0.46 nM
